Each block holds one molecule with its values, some of them ahead of it.
What was measured:
SLK [1] = test: In vitro binding assay, GST-SLK fusions with [35S]-labeled Ldb; set-up: species or system murine; conditions: deletions lacking the ATH domain, prolonged exposures
Experimental: (§1) GST fusion proteins were generated by induction of bacterial cultures with 1 mM isopropyl-beta-D-thiogalactopyranoside (IPTG, Sigma) for 2 hours. Bacteria were pelleted, resuspended in 1 ml bacterial lysis buffer (20% sucrose, 10% glycerol, 50 mM Tris-HCl pH 8.0, 2 mM MgCl2, 2 mM DTT, 10 μg/ml leupeptin, 10 μg/ml pepstatin, 10 μg/ml aprotinin, 1 mM phenylmethylsulphonylfluoride [PMSF] and 100 μM benzamidine) and sonicated on ice.
(§2) Glutathione sepharose beads (Amersham Pharmacia) were added to the cleared supernatants and bound GST fusions were collected by centrifugation, washed three times with NETN and subjected to binding assays. In vitro translated proteins were generated using the TNT quick coupled in vitro transcription translation kit (Promega) according to the manufacturer's instructions. Translated proteins were incubated with either GST or GST fusions in NETN buffer, washed with NETN and eluted from the beads by boiling in sample buffer. Proteins were fractionated by SDS-PAGE, the gels were stained with Coomassie brilliant blue (Sigma) to visualize the proteins, destained (30% methanol, 10% acetic acid), dried and subjected to autoradiography.

SLK [2] = molecular target: T1, SLK (Mus musculus, UniProt O54988); test: as above; set-up: species or system murine; conditions: GST pulldown, autoradiography
T1 construct: made in house; host or cells: bacteria (IPTG-induced; pGEX-5X or 4T1)
T1 sequence (O54988 981-1233): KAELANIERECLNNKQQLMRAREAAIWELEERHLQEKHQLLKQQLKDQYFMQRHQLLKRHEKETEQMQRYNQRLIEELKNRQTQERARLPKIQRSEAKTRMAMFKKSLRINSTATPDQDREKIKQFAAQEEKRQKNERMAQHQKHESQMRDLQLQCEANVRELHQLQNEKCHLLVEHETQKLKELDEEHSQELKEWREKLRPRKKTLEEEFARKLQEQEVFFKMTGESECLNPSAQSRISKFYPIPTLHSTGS
Experimental: as §1, §2

SLK [3] = molecular target: T2, SLK (Mus musculus, UniProt O54988); test: as above; set-up: species or system murine; conditions: carboxy-terminal deletion lacking the latter two thirds of the ATH domain
T2 construct: made in house; host or cells: bacteria (IPTG-induced; pGEX-5X or 4T1)
Experimental: as §1, §2
T2 sequence (O54988 1-950 isoform O54988-2): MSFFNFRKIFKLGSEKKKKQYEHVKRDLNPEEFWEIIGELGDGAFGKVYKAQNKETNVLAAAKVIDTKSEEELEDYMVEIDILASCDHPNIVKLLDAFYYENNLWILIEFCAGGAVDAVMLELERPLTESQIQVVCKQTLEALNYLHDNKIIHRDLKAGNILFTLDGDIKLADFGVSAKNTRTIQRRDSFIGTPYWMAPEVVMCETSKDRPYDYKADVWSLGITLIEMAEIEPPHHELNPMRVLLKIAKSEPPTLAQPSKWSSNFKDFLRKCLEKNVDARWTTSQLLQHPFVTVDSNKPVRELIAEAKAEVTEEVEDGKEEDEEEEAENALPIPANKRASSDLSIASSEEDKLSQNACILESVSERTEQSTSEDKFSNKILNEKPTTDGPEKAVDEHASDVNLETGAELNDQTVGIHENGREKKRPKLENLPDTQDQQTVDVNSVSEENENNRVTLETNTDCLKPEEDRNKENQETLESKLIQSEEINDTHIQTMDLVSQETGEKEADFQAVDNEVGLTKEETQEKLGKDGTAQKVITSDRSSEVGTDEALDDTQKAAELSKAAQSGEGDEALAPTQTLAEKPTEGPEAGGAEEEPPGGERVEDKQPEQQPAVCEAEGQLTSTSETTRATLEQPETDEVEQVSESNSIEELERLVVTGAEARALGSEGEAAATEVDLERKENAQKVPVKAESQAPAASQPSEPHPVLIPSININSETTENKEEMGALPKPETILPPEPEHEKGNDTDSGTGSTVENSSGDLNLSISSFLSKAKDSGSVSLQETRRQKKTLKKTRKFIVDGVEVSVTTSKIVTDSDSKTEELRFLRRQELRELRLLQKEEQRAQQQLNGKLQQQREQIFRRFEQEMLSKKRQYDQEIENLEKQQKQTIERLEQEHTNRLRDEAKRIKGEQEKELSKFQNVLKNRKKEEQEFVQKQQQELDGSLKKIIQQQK

α-tubulin = test: GST pulldown binding to α-tubulin; conditions: in vitro
Excerpt: Co-localization of Rac1 (d), Paxillin (e) and Ldb1 (f) with SLK (a-c) in membrane ruffles of migrating fibroblasts on fibronectin (arrowhead). Note the absence of SLK in mature adhesions identified by Paxillin staining (e; arrow). […] (m) Ldb2 binds α-tubulin.

[4] = molecular target: T3, GST-tagged recombinant SLK (Mus musculus, UniProt O54988); test: Recombinant SLK kinase assay on histone H1; type: biochemical, murine; conditions: recombinant His-tagged Ldb added to GST-SLK, substrate histone H1
T3 construct: GST (N); made in house; host or cells: bacteria (IPTG-induced, pGEX vector)
T3 sequence (O54988 1-1202 isoform O54988-2): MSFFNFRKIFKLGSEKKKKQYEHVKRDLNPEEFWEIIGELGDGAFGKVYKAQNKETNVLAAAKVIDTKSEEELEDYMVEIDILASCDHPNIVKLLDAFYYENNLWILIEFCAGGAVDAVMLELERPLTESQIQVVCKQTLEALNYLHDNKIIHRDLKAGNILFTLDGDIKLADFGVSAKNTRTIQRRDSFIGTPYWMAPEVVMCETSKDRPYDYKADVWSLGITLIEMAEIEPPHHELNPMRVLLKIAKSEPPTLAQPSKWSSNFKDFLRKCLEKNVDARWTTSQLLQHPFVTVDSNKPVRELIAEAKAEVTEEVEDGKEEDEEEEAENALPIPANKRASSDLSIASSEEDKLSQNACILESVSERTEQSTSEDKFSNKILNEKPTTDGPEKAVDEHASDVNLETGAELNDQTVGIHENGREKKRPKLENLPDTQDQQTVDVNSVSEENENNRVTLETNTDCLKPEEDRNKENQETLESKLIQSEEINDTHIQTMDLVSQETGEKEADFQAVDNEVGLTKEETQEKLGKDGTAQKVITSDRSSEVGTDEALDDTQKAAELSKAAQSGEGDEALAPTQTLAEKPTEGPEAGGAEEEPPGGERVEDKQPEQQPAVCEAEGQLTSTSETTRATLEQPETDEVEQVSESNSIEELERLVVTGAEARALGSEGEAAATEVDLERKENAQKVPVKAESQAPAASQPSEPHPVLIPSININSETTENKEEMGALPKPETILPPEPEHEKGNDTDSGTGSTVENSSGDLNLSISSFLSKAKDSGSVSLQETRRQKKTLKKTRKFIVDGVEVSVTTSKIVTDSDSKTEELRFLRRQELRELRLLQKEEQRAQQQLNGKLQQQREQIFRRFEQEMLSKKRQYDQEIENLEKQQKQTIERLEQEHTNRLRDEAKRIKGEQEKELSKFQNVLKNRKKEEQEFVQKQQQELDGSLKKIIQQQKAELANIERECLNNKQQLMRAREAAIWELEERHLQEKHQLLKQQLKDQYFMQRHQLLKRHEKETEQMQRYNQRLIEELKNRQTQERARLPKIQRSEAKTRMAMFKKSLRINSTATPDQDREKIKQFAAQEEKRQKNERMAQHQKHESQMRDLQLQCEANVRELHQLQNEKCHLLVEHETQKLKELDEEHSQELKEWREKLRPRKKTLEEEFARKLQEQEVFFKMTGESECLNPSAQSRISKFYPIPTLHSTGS
Excerpt: (a-left panel) MEFs obtained from floxed-Ldb1 mice were generated and infected with recombinant adenovirus harbouring a GFP or Cre recombinase cDNA. […] (right panel) SLK was immunoprecipitated from lysates obtained from Ad-GFP or Ad-Cre infected cells. SLK precipitation efficiency and kinase activity was consistently greater in lysates from Cre-infected cells. In addition, Ldb2 association with the SLK complex was lost in cells lacking Ldb1 (bottom panel). (b) Ldb2 interacts with SLK kinase domain and ATH. […] (c) Ldb1/2 inhibit SLK kinase activity in vitro. Recombinant GST-tagged SLK was prepared and mixed with recombinant His-tagged Ldb2 (lane 2), His-tagged Ldb1 (lane 3) or both (lane 4) and assayed for kinase activity on histone H1. Addition of recombinant Ldb proteins inhibited SLK activity (d) Activation of SLK by scratch wounding is accompanied by a conformational change. Endogenous SLK complexes were immunoprecipitated from unscratched MEFs or 60 min post-wounding and subjected to trypsin digestion. Differential trypsin sensitivity was observed indicative of altered conformation.
Recombinant SLK was prepared by inducing an overnight culture of GST-SLK with IPTG and preparing GST SLK as described above. […]

binding to GST-SLK-1-551, GST-SLK-1-373 (SLK [1]): weak binding
binding to SLK ATH domain (SLK 950-1202) (SLK [2]): highest affinity
binding to SLK 1-950 (SLK [3]): moderate affinity
binding to α-tubulin (α-tubulin): found to bind α-tubulin in vitro
B1: Ldb2: LIM domain binding transcription co-factor, paralog of Ldb1; recombinant His-tagged or in vitro translated protein (protein)
chain: MSSTPHDPFYSSPFGPFYRRHTPYMVQPEYRIYEMNKRLQSRTEDSDNLWWDAFATEFFEDDATLTLSFCLEDGPKRYTIGRTLIPRYFSTVFEGGVTDLYYILKHSKESYHNSSITVDCDQCAMVTQHGKPMFTKVCTEGRLILEFTFDDLMRIKTWHFTIRQYRELVPRSILAMHAQDPQVLDQLSKNITRMGLTNFTLNYLRLCVILEPMQELMSRHKTYNLSPRDCLKTCLFQKWQRMVAPPAEPTRQPTTKRRKRKNSTSSTSNSSAGNTTNSAGSKKKTPAASLSLATQVPDVMVVGEPTLMGGEFGDEDERLITRLENTQYDAANGMDDEEDFNNSPALGNNSPWNSKPPATQETKSENAPPQASQ
modifications: left off: large carriers
notes: recombinant His-tagged or in vitro translated protein
SLK kinase activity [4]: reduced SLK activity

binding to SLK ATH domain (SLK 950-1202) (SLK [2]): indistinguishable from Ldb2
binding to α-tubulin (α-tubulin): not
B2: Ldb1: LIM domain binding transcription co-factor; recombinant His-tagged or in vitro translated protein, SLK binding partner (protein)
chain: MLDRDVGPTPMYPPTYLEPGIGRHTPYGNQTDYRIFELNKRLQNWTEECDNLWWDAFTTEFFEDDAMLTITFCLEDGPKRYTIGRTLIPRYFRSIFEGGATELYYVLKHPKEAFHSNFVSLDCDQGSMVTQHGKPMFTQVCVEGRLYLEFMFDDMMRIKTWHFSIRQHRELIPRSILAMHAQDPQMLDQLSKNITRCGLSNSTLNYLRLCVILEPMQELMSRHKTYSLSPRDCLKTCLFQKWQRMVAPPAEPARQQPSKRRKRKMSGGSTMSSGGGNTNNSNSKKKSPASTFALSSQVPDVMVVGEPTLMGGEFGDEDERLITRLENTQFDAANGIDDEDSFNNSPALGANSPWNSKPPSSQESKSENPTSQASQ
modifications: left off: large carriers
SLK kinase activity [4]: reduced SLK activity

— patent US20090081195A1, “Inhibitors of Ste20-like Kinase (SLK) and Methods of Modulating Cell Cycle Progression and Cell Motility” (OTTAWA HEALTH RESEARCH INSTITUTE, priority 2005, published 2009)
